From patent US20170253670A1 (Hoffmann-La Roche, published 2017) come the findings set out here.

Assay [1] concerns the target T1, human FolR1 on cells (HeLa, SKOV3, HT-29, transfected HEK) (human, UniProt P15328 25-234). The experiment in a line: cell-based or functional assay.
Assay [2] addresses T1, human FolR1 on cells (HeLa, SKOV3, …). As to the kind of experiment: flow cytometry on HeLa cells, fluorescently labeled anti-human secondary antibody.
In assay [3] the target is T2, human FolR1 monovalent Fc fusion, biotinylated (human, UniProt P15328 25-233, biotin on C-terminal Avi-tag ; biotin on the C-terminal Avi-tag of the Fc-knob chain (tag not in the letters)).
T2 construct: ECD linked to hinge of Fc-knob, co-expressed with Fc-hole; also called huFolR1; huFolR1-Fc; not shown: hinge-Fc(knob)-Avi-tag fused to the ECD, and the co-expressed Fc(hole) chain
T2 sequence (P15328 25-233 limits assumed): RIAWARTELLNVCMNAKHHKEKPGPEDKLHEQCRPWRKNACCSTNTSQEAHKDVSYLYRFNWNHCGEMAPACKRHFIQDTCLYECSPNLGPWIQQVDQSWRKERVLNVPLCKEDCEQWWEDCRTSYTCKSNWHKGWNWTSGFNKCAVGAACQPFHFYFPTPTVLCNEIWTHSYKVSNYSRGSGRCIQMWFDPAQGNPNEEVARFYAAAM
As to the kind of experiment: SPR ProteOn, Fab analyte, antigen on chip. The protocol:
Immobilization of antigens (ligand): Recombinant antigens were diluted with PBST (10 mM phosphate, 150 mM sodium chloride pH 7.4, 0.005% Tween 20) to 10 μg/ml, then injected at 30 μl/minute in vertical orientation. Injection of analytes: For ‘one-shot kinetics’ measurements, injection direction was changed to horizontal orientation, two-fold dilution series of purified Fab (varying concentration ranges) were injected simultaneously along separate channels 1-5, with association times of 200 s, and dissociation times of 600 s. Buffer (PBST) was injected along the sixth channel to provide an “in-line” blank for referencing. Association rate constants (kₒₙ) and dissociation rate constants (koff) were calculated using a simple one-to-one Langmuir binding model in ProteOn Manager v3.1 software by simultaneously fitting the association and dissociation sensorgrams. The equilibrium dissociation constant (KD) was calculated as the ratio koff/kₒₙ.

Assay [4] has as its target T3, recombinant human BCMA Fc(kih) (human, UniProt Q02223 4-53, biotin on avi-tag where coupled to SA chip ; biotin on the avi-tag of the Fc-knob chain where coupled to the SA chip (tag not in the letters)).
T3 construct: also called huBCMA Fc(kih); huBCMA; not shown: human IgG1 hinge-Fc(knob)-avi fused to the ECD, and the unfused Fc(hole) chain
T3 chain: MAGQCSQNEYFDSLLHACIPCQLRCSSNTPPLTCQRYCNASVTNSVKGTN
As to the kind of experiment: SPR Biacore, bivalent avidity, BCMA-Fc on chip (Experiment 3). Here is the method: (§1) Assessment of binding of anti-BCMA antibodies to recombinant BCMA by surface plasmon resonance (SPR) as follow. All SPR experiments were performed on a Biacore T200 at 25° C. with HBS-EP as running buffer (0.01 M HEPES pH 7.4, 0.15 M NaCl, 3 mM EDTA, 0.005% Surfactant P20, Biacore, Freiburg/Germany). The avidity of the interaction between anti-BCMA antibodies and recombinant BCMA Fc(kih) (human, cynomolgus and murine) was determined (Tables 38-40). Biotinylated recombinant human, cynomolgus and murine BCMA Fc(kih) were directly coupled on a SA chip following instructions (Biacore, Freiburg/Germany). The immobilization level ranged from 80 to 120 RU. […] The dissociation was monitored for 180 seconds. Bulk refractive index differences were corrected for by subtracting the response obtained on the reference flow cell. Here, the anti-BCMA antibodies were flown over an empty surface previously activated and deactivated as described in the standard amine coupling kit. Apparent kinetic constants were derived using the Biacore T200 Evaluation Software (v 1.0, Biacore AB, Uppsala/Sweden), to fit rate equations for 1:1 Langmuir binding by numerical integration, despite the bivalency of the interaction for comparison purposes.
(In general: Surface plasmon resonance follows binding to a sensor surface in real time, without labels.)

Assay [5] deals with T4, recombinant murine BCMA Fc(kih) (murine, UniProt O88472 2-49, biotinylated at the avi-tag of the Fc knob chain (not in the letters)).
T4 construct: also called muBCMA Fc(kih); not shown: human IgG1 hinge-Fc(knob)-avi and the unfused Fc(hole) chain
T4 chain: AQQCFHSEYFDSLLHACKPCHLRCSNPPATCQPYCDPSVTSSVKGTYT
As to the kind of experiment: SPR Biacore, binder captured via anti-Fab, BCMA-Fc analyte.

Assay [6] addresses T3, recombinant human BCMA Fc(kih). Described as above.
The target is the same in assay [7]. As to the kind of experiment: SPR Biacore, bivalent avidity, BCMA-Fc on chip (Experiment 2). Here is the method: as §1
The next assay concerns the target T5, Fc fused huTACI-R (human, UniProt O14836 2-166, limits assumed).
T5 construct: also called human TACI receptor
T5 sequence (looked up): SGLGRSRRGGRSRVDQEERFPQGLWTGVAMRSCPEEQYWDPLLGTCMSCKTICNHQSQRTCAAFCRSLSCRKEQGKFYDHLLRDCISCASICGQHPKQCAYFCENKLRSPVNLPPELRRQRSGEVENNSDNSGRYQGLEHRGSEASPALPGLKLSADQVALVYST
As to the kind of experiment: SPR (Biacore T200), Fc fused huTACI-R on CM5 chip, IgG as analyte, reference-subtracted.

In assay [8] the target is T4, recombinant murine BCMA Fc(kih). The experiment in a line: SPR Biacore, bivalent avidity, BCMA-Fc on chip (Experiment 3). The protocol: as §1
Assay [9] has the same target. The experiment in a line: SPR Biacore, bivalent avidity, BCMA-Fc on chip (Experiment 2). The protocol:
as §1

Assay [10] has the same target. The experiment in a line: SPR Biacore, bivalent avidity, BCMA-Fc on chip. The protocol: as §1
Assay [11] deals with T3, recombinant human BCMA Fc(kih). As to the kind of experiment: SPR Biacore, bivalent avidity, BCMA-Fc on chip. The protocol:
as §1

The target of assay [12] is T1, human FolR1 on cells (HeLa, SKOV3, …). As to the kind of experiment: flow cytometry, HeLa cells. Here is the method:
Target cells as indicated were harvested with Cell Dissociation Buffer, washed with PBS and resuspended in FACS buffer. The antibody staining was performed in a 96well round bottom plate. Therefore 200′000 cells were seeded per well. The plate was centrifuged for 4 min at 400 g and the supernatant was removed. The test antibodies were diluted in FACS buffer and 20 μl of the antibody solution were added to the cells for 30 min at 4° C.

The target is the same in assay [13]. The experiment in a line: cell-based or functional assay. The source holds these as a separate data set.

T1 sequence (P15328 25-234): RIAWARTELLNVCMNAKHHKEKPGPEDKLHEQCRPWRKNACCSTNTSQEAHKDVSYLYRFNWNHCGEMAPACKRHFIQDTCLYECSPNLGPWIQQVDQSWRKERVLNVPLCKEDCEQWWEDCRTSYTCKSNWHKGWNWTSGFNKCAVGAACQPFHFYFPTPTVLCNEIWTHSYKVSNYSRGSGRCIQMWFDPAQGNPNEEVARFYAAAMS

B1: 9D11 TCB S100aA (bispecific antibody, human IgG1, kappa, L234A L235A)
heavy 1: not shown
heavy 2: QVQLVQSGAEVKKPGASVKVSCKASGYTFTSYYMHWVRQAPGQGLEWMGIINPSGGPTSYAQKFQGRVTMTRDTSTSTVYMELSSLRSEDTAVYYCARGDFAWLDYWGQGTLVTVSSASTKGPSVFPLAPSSKSTSGGTAALGCLVKDYFPEPVTVSWNSGALTSGVHTFPAVLQSSGLYSLSSVVTVPSSSLGTQTYICNVNHKPSNTKVDKKVEPKSCDKTHTCPPCPAPEAAGGPSVFLFPPKPKDTLMISRTPEVTCVVVDVSHEDPEVKFNWYVDGVEVHNAKTKPREEQYNSTYRVVSVLTVLHQDWLNGKEYKCKVSNKALGAPIEKTISKAKGQPREPQVCTLPPSRDELTKNQVSLSCAVKGFYPSDIAVEWESNGQPENNYKTTPPVLDSDGSFFLVSKLTVDKSRWQQGNVFSCSVMHEALHNHYTQKSLSLSPGK
light 1: not shown
light 2: QAVVTQEPSLTVSPGGTVTLTCGSSTGAVTTSNYANWVQEKPGQAFRGLIGGTNKRAPGTPARFSGSLLGGKAALTLSGAQPEDEAEYYCALWYSNLWVFGGGTKLTVLSSASTKGPSVFPLAPSSKSTSGGTAALGCLVKDYFPEPVTVSWNSGALTSGVHTFPAVLQSSGLYSLSSVVTVPSSSLGTQTYICNVNHKPSNTKVDKKVEPKSC
In the case of B1, the “EC50 killing 24 h, SKov-3” value in [1] came to 0.00194 nM.

B2: 14E4 IgG (antibody, V domains shown)
VH: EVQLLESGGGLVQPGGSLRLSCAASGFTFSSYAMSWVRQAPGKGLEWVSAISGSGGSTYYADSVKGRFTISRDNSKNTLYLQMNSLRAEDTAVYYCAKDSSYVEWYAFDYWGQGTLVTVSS
VL: EIVLTQSPGTLSLSPGERATLSCRASQSVSSSYLAWYQQKPGQAPRLLIYGASSRATGIPDRFSGSGSGTDSTLTISRLEPEDFAVYYCQQPTSSPITFGQGTKVEIK
notes: human IgG1
For the molecule B2, in assay [2], the binding result is on record as “no binding (tested: 50 µg/ml)”.

B3: 15H7 Fab (Fab, V domains shown)
VH: QVQLVQSGAEVKKPGASVKVSCKASGYTFTSYYMHWVRQAPGQGLEWMGIINPSGGSTSYAQKFQGRVTMTRDTSTSTVYMELSSLRSEDTAVYYCARNYYLFSTSFDYWGQGTLVTVSS
VL: QAVVTQEPSLTVSPGGTVTLTCGSSTGAVTTSNYANWVQEKPGQAFRGLIGGTNKRAPGTPARFSGSLLGGKAALTLSGAQPEDEAEYYCALWYSNLWVFGGGTKLTVL
notes: as m35
B3 returned a Kd in assay [3] of 13.4 nM.

B4: pSCHLI373 anti-BCMA IgG (antibody, V domains shown)
VH: EVQLVESGGGLVKPGGSLRLSCAASGFSFSNSWMNWVRQAPGKGLEWVGTIRQKTYGGTTDYAAPVKGRFTISRDDSKNTLYLQMNSLKTEDTAVYYCTTGGLFGYWDYWGQGTLVTVSS
VL: B3 VL
B4: the Kd was found to be 12.1 nM in assay [4], 724 nM in assay [5], 135 nM in [6] and 23 nM in assay [7].

B5: pSCHLI372 anti-BCMA IgG (antibody, V domains shown)
VH: EVQLVESGGGLVKPGGSLRLSCAASGFTFSNSGMIWVRQAPGKGLEWVGHIRSKTDGGTTDYAAPVKGRFTISRDDSKNTLYLQMNSLKTEDTAVYYCTTGGSGSFDYWGQGTLVTVSS
VL: B3 VL
notes: also called pSCHLI372 IgG; anti-BCMA IgG pSCHLI372
For the molecule B5, the binding result in the assay with Fc fused huTACI-R is recorded as “no binding”. Moreover, the Kd in assay [8] is 25.7 nM; in assay [4], 3.6 nM; in assay [5], 1310 nM; in assay [6], 114 nM; in assay [9] it was 42.7 nM; in assay [7], 8.5 nM.

B6: pSCHLI333 anti-BCMA IgG (antibody, V domains shown)
VH: QVQLVQSGAEVKKPGASVKVSCKASGYMFSSFGMSWVRQAPGQGLEWMGWIYPVGQGTWYAQKFQGRVTMTRDTSTSTVYMELSSLRSEDTAVYYCARVSYPPSHFDYWGQGTLVTVSS
VL: B3 VL
As for B6, the values for the Kd in [10] and in assay [11] were 19.6 nM and 2.5 nM, respectively.

B7: 9D11 FolR1 TCB 1+1 head-to-tail (crossfab) (bispecific antibody, V domains shown)
VH: QVQLVQSGAEVKKPGASVKVSCKASGYTFTSYYMHWVRQAPGQGLEWMGIINPSGGPTSYAQKFQGRVTMTRDTSTSTVYMELSSLRSEDTAVYYCARGDFAWLDYWGQGTLVTVSS
VL: not shown
notes: 1+1 head-to-tail with CD3 CrossFab on the same arm
A word on the EC50: it is the concentration that produces a half-maximal response. Low values mean an effect from little substance, high ones a need for much substance. B7 returned a concentration for a half-maximal effect (EC50) in [12] of 44.2 nM. Besides, in assay [13], the “EC50 killing 24 h (pM), SKOV3” value was determined as 4.73 pM.
